# Assay results published in patent US20200362018.
# Columns and labels:
# [1] = target: 20S proteasome (source not stated for the experiment)
# [2] = target: R. norvegicus (Mammalian) 20S proteasome purified from rat liver
# [3] = target: T1, S. cerevisiae (Yeast) 20S proteasome, FLAG-tagged (Pre1), P22141
# T1 sequence (P22141 1-198, looked up): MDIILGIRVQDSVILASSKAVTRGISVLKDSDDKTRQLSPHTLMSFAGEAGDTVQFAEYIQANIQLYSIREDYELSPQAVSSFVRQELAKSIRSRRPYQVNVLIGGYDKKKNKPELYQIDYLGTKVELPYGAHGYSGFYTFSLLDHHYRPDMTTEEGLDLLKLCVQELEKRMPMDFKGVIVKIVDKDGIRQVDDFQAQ
# [4] = target: T2, T. acidophilum (Archaea) 20S proteasome, P25156
# T2 chain 1: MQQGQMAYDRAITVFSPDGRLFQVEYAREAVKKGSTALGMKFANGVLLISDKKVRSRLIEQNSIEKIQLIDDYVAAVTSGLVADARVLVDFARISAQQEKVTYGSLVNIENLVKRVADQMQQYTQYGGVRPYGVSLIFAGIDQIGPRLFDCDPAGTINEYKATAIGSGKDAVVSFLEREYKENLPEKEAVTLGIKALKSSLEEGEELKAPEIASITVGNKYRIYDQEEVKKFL
# T2 chain 2: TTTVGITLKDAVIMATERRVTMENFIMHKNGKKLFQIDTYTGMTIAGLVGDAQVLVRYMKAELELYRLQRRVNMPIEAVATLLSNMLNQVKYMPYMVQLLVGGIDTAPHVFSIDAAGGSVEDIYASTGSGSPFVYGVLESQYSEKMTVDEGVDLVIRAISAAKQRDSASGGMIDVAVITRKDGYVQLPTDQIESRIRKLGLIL
Protein,"time-dependent degradation of α-synuclein by the 20S proteasome, SDS-PAGE with image analysis [1]",in vitro degradation of oxidized calmodulin by purified mammalian 20S proteasomes [2],in vitro degradation of α-synuclein by purified mammalian 20S proteasomes [2],"degradation of α-synuclein by the 20S proteasome, SDS-PAGE time course [3]","degradation of α-synuclein by the 20S proteasome, SDS-PAGE time course [4]"
"human NQO2 (recombinant, His-TEV fragment removed) (protein) MAGKKVLIVYAHQEPKSFNGSLKNVAVDELSRQGCTVTVSDLYAMNLEPRATDKDITGTLSNPEVFNYGVETHEAYKQRSLASDITDEQKKVREADLVIFQFPLYWFSVPAILKGWMDRVLCQGFAFDIPGFYDSGLLQGKLALLSVTTGGTAEMYTKTGVNGDSRYFLWPLQHGTLHFCGFKVLAPQISFAPEIASEEERKGMVAAWSQRLQTIWKEEPIPCTAHWHFGQ","In the presence of NQO2, CBR3, PGDH, NRas, KRas and RhoA, however, there was a marked decrease in the degradation rate.",OxCam degradation was inhibited by all the candidates,"the majority of the CCRs successfully inhibited the degradation of α-synuclein, with the exception of RBBP9 and HRas",–,–
"human CBR3 (recombinant, His tag removed) (protein) MSSCSRVALVTGANRGIGLAIARELCRQFSGDVVLTARDVARGQAAVQQLQAEGLSPRFHQLDIDDLQSIRALRDFLRKEYGGLNVLVNNAAVAFKSDDPMPFDIKAEMTLKTNFFATRNMCNELLPIMKPHGRVVNISSLQCLRAFENCSEDLQERFHSETLTEGDLVDLMKKFVEDTKNEVHEREGWPNSPYGVSKLGVTVLSRILARRLDEKRKADRILVNACCPGPVKTDMDGKDSIRTVEEGAETPVYLALLPPDATEPQGQLVHDKVVQNW",–,OxCam degradation was inhibited by all the candidates,"the majority of the CCRs successfully inhibited the degradation of α-synuclein, with the exception of RBBP9 and HRas",Human CBR3 inhibited 20S proteasomes from all tested species.,Human CBR3 inhibited 20S proteasomes from all tested species.
human PGDH with a C-terminal 6His tag (protein) MHVNGKVALVTGAAQGIGRAFAEALLLKGAKVALVDWNLEAGVQCKAALDEQFEPQKTLFIQCDVADQQQLRDTFRKVVDHFGRLDILVNNAGVNNEKNWEKTLQINLVSVISGTYLGLDYMSKQNGGEGGIIINMSSLAGLMPVAQQPVYCASKHGIVGFTRSAALAANLMNSGVRLNAICPGFVNTAILESIEKEENMGQYIEYKDHIKDMIKYYGILDPPLIANGLITLIEDDALNGAIMKITTSKGIHFQDYDTTPFQAKTQ,–,OxCam degradation was inhibited by all the candidates,"the majority of the CCRs successfully inhibited the degradation of α-synuclein, with the exception of RBBP9 and HRas",–,–
human RBBP9 with a C-terminal 6His tag (protein) MASPSKAVIVPGNGGGDVTTHGWYGWVKKELEKIPGFQCLAKNMPDPITARESIWLPFMETELHCDEKTIIIGHSSGAIAAMRYAETHRVYAIVLVSAYTSDLGDENERASGYFTRPWQWEKIKANCPYIVQFGSTDDPFLPWKEQQEVADRLETKLHKFTDCGHFQNTEFHELITVVKSLLKVPA,–,OxCam degradation was inhibited by all the candidates,–,–,–
